Patent US20190300590A1 (PROTAGONIST THERAPEUTICS, published 2019)
Where two headings read alike, the source gives them in different places. *1 amine or outer side, *2 acyl side, *3 side chain or, on linkers, in order; H or OH if unused. Bridges are numbered along the chain shown (N, C = ends). Primed or numbered codes have the meaning given here. [ ]: non-standard residue; d: D form. Phe(4-OMe)(4) = O-methyl-L-tyrosine, COc1ccc(C[C@H](N[*:1])C(=O)[*:2])cc1; 2Nal = N[C@@H](Cc1ccc2ccccc2c1)C(=O)O; AEF = NCCOc1ccc(C[C@H](N)C(=O)O)cc1; αMeL = CC(C)C[C@](C)(N)C(=O)O; Pen = CC(C)(S)[C@H](N)C(=O)O; hLeu = CC(C)CC[C@H](N)C(=O)O; αMeK = C[C@](N)(CCCCN)C(=O)O; Abu = CC[C@H](N)C(=O)O

Assays:
Rat IL-23R_huFC [1] = molecular target: Rat IL-23R_huFC (rat); experiment: rat ELISA vs IL-23
[2] = molecular target: T1, IL-23R on human cells (IL-23R-expressing DB cells; human NK cells) (human, UniProt Q5VWK5 24-629); experiment: cell-based or functional assay
T1 sequence (looked up): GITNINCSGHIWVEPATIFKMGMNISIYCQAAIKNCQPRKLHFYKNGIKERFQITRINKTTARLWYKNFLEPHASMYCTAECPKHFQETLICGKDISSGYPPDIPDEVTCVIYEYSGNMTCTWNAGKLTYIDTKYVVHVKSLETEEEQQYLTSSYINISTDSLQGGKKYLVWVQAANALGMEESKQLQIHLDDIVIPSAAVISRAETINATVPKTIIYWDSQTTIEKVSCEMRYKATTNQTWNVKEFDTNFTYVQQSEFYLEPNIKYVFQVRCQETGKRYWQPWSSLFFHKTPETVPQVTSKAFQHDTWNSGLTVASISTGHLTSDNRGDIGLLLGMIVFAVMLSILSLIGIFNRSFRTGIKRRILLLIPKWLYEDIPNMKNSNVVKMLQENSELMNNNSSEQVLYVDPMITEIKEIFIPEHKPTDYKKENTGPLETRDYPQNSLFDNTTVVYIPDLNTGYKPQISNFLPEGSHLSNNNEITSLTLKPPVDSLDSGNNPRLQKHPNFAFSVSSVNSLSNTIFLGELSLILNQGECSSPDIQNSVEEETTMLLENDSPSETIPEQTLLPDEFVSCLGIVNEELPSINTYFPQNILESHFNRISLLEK

IL23R_huFC [3] = molecular target: T2, IL23R_huFC (human, UniProt Q5VWK5 24-353); experiment: human ELISA vs IL-23
T2 sequence (looked up): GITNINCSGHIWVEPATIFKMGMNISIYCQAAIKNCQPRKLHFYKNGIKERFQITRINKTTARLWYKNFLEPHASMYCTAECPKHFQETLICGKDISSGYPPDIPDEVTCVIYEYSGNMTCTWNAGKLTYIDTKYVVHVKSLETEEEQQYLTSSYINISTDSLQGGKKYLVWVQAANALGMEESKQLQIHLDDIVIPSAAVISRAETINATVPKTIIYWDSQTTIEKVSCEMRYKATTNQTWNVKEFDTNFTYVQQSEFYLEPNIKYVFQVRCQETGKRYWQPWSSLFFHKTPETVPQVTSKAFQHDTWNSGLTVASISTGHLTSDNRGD

IL-23R on DB cells = molecular target: T3, IL-23R on DB cells (human, UniProt Q5VWK5 24-629); experiment: cell-based or functional assay
T3 sequence (looked up): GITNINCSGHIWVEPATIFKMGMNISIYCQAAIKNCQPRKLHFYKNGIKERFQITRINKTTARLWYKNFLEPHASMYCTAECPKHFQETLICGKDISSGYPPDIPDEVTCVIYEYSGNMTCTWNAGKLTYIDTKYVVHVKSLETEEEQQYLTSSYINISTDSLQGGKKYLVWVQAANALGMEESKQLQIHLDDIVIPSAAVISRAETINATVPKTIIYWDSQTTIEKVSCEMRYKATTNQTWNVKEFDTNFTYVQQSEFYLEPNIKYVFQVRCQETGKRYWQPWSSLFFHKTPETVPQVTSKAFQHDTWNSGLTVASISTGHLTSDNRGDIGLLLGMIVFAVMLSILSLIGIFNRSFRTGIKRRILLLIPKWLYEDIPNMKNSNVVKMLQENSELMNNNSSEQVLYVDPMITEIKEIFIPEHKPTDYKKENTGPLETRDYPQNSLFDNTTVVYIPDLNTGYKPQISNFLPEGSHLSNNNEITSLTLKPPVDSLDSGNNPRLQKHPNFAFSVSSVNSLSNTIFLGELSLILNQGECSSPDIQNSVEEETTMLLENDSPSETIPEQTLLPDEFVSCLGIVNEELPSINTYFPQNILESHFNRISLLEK

IL23R_huFC [4] = molecular target: T4, IL23R_huFC (human, UniProt Q5VWK5 24-353); experiment: IL23-IL23R competitive binding ELISA
T4 sequence (looked up): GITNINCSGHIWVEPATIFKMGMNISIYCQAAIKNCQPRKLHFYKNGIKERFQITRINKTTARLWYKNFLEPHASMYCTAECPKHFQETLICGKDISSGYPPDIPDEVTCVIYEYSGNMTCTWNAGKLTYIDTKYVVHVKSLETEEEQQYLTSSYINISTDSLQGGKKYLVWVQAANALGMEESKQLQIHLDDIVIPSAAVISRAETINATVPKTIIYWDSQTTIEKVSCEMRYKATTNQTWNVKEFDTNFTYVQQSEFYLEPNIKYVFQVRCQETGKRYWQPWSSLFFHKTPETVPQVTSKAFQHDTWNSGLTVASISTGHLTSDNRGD

Rat IL-23R_huFC [5] = molecular target: T5, Rat IL-23R_huFC (rat, UniProt F1LX96 39-369); experiment: rat IL-23R competitive binding ELISA
T5 sequence: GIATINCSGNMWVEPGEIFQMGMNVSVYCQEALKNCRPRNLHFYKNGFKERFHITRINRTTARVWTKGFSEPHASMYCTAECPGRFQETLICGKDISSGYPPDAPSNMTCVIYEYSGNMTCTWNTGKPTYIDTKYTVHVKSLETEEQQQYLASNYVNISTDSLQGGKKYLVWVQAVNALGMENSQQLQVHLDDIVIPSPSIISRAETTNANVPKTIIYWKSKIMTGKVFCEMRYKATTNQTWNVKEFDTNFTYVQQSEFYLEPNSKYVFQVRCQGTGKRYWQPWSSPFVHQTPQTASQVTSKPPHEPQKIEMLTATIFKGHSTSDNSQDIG

IL23R_huFC [6] = molecular target: T2, IL23R_huFC; experiment: human ELISA vs IL-23; remark: listed apart in the source
Rat IL-23R_huFC [7] = molecular target: T5, Rat IL-23R_huFC; experiment: rat IL-23R competitive binding ELISA; remark: listed apart in the source

Q: Which IC50 (Rat IL-23R_huFC [1]) does the source give for Ac-[dK][Abu]QTWQC[Phe(4-OMe)(4)][2Nal][αMeL]ENG-NH2 (thioether 2-7) [Ac-(D)Lys-[Cyclo-[[Abu]-QTWQC]]-[Phe(4-OMe)]-[2-Nal]-[α-MeLeu]-ENG-NH2] here?
A: 10 to 25 nM

Q: What about the “pStat3 HTRF IC50” value [2] of the same binder?
A: < 10 nM

Q: And the IC50 (IL23R_huFC [3])?
A: < 10 nM

Q: XQTWQXYXKENG (Ac; Pen-Pen disulfide; 2-Nal; α-MeLys; NH2) [Ac-[Pen]-QTWQ-[Pen]-Y-[2-Nal]-[α-MeLys]-ENG-NH2] was tested. Which “pStat3 HTRF IC50” value (IL-23R on DB cells) did it give?
A: < 10 nM

Q: And the IC50 (IL23R_huFC [4])?
A: 25 to 100 nM

Q: And the IC50 (Rat IL-23R_huFC [5])?
A: 100 to 1000 nM

Q: What does the source list for Ac-[Pen]STWQ[Pen][AEF][2Nal][αMeK]ENG-NH2 (disulfide 1-6 (inferred)) [Ac-[Pen]-STWQ-[Pen]-[Phe[4-(2-aminoethoxy)]-[2-Nal]-[α-MeLys]-ENG-NH2]?
A: pStat3 HTRF IC50 (IL-23R on DB cells): < 10 nM; IC50 (IL23R_huFC [4]): 10 to 25 nM

Q: With Ac-[Pen]TTWQ[Pen][AEF][2Nal][αMeK]ENG-NH2 (disulfide 1-6 (inferred)) [Ac-[Pen]-TTWQ-[Pen]-[Phe[4-(2-aminoethoxy)]-[2-Nal]-[α-MeLys]-ENG-NH2] as the binder, how does the “pStat3 HTRF IC50” value (IL-23R on DB cells) read?
A: < 10 nM

Q: What about the IC50 (IL23R_huFC [4]) of the same binder?
A: 10 to 25 nM

Q: Which results are given for XQTWQXFXLQNN (Ac; Pen-Pen disulfide; Phe[4-(2-aminoethoxy)]; 2-Nal; α-MeLeu; NH2) [Ac-[Pen]-QTWQ-[Pen]-[Phe[4-(2-aminoethoxy)]-[2-Nal]-[α-MeLeu]-QNN-NH2]?
A: pStat3 HTRF IC50 (IL-23R on DB cells): < 10 nM; IC50 (IL23R_huFC [4]): < 10 nM; IC50 (Rat IL-23R_huFC [5]): < 10 nM

Q: For XQTWQXFXKENA (Ac; Pen-Pen disulfide; Phe[4-(2-acetylaminoethoxy)]; 2-Nal; α-MeLys(Ac); NH2) [Ac-[Pen]-QTWQ-[Pen]-[Phe[4-(2-acetylaminoethoxy)]-[2-Nal]-[α-MeLys(Ac)]-ENA-NH2], which “pStat3 HTRF IC50” value (IL-23R on DB cells) is on record?
A: < 10 nM

Q: What about the IC50 (IL23R_huFC [4]) of the same binder?
A: 10 to 25 nM

Q: With XQTWQXFXKENG (Ac; Pen-Pen disulfide; Phe(4-OMe); 2-Nal; α-MeLys; NH2) [Ac-[Pen]-QTWQ-[Pen]-[Phe(4-OMe)]-[2-Nal]-[α-MeLys]-ENG-NH2] as the binder, how does the IC50 (IL23R_huFC [4]) read?
A: 25 to 100 nM

Q: What about the IC50 (Rat IL-23R_huFC [5]) of the same binder?
A: 100 to 1000 nM

B1: Ac-[Pen]-QTWQ-[Pen]-[Phe[4-(2-acetylaminoethoxy)]-[2-Nal]-[α-MeLeu]-[Lys(Ac)]-NN-NH2 (peptide)
peptide: XQTWQXFXLKNN
modifications: Ac; Pen-Pen disulfide; Phe[4-(2-acetylaminoethoxy)]; 2-Nal; α-MeLeu; Lys(Ac); NH2
Q: B1 was tested. Which “pStat3 HTRF IC50” value (IL-23R on DB cells) did it give?
A: < 10 nM

Q: What about the IC50 (IL23R_huFC [4]) of the same binder?
A: < 10 nM

Q: XQTWQXFXLQNN (Ac; Pen-Pen disulfide; Phe[4-(2-acetylaminoethoxy)]; 2-Nal; α-MeLeu; NH2) [Ac-[Pen]-QTWQ-[Pen]-[Phe[4-(2-acetylaminoethoxy)]-[2-Nal]-[α-MeLeu]-QNN-NH2] was tested. Which “pStat3 HTRF IC50” value (IL-23R on DB cells) did it give?
A: < 10 nM

Q: What about the IC50 (IL23R_huFC [4]) of the same binder?
A: < 10 nM

Q: What does the source list for XQTWQXFXLKNN (Ac; Pen-Pen disulfide; Phe[4-(2-aminoethoxy)]; 2-Nal; α-MeLeu; Lys(Ac); NH2) [Ac-[Pen]-QTWQ-[Pen]-[Phe[4-(2-aminoethoxy)]-[2-Nal]-[α-MeLeu]-[Lys(Ac)]-NN-NH2]?
A: pStat3 HTRF IC50 (IL-23R on DB cells): < 10 nM; IC50 (IL23R_huFC [4]): < 10 nM; IC50 (Rat IL-23R_huFC [5]): < 10 nM

Q: Which results are given for XQTWQXFXKENA (Ac; Pen-Pen disulfide; Phe[4-(2-aminoethoxy)]; 2-Nal; α-MeLys; NH2) [Ac-[Pen]-QTWQ-[Pen]-[Phe[4-(2-aminoethoxy)]-[2-Nal]-[α-MeLys]-ENA-NH2]?
A: pStat3 HTRF IC50 (IL-23R on DB cells): < 10 nM; IC50 (IL23R_huFC [4]): < 10 nM; IC50 (Rat IL-23R_huFC [5]): 25 to 100 nM

Q: How did the IC50 (IL23R_huFC [4]) turn out when XQTWQXYWLENG (Ac; Pen-Pen disulfide; hLeu; NH2) [Ac-[[Pen]-QTWQ-[Pen]-YW-[hLeu]-ENG-NH2] was run?
A: 100 to 1000 nM

B2: Ac-[Pen]-QTWQ-[Pen]-YW-[(D)Asn]-ENG-NH2 (peptide)
peptide: Ac-[Pen]QTWQ[Pen]YW[dN]ENG-NH2
modifications: disulfide 1-6
SMILES: CC(=O)N[C@@H]1C(=O)N[C@@H](CCC(N)=O)C(=O)N[C@@H]([C@@H](C)O)C(=O)N[C@@H](Cc2c[nH]c3ccccc23)C(=O)N[C@@H](CCC(N)=O)C(=O)N[C@H](C(=O)N[C@@H](Cc2ccc(O)cc2)C(=O)N[C@@H](Cc2c[nH]c3ccccc23)C(=O)N[C@H](CC(N)=O)C(=O)N[C@@H](CCC(=O)O)C(=O)N[C@@H](CC(N)=O)C(=O)NCC(N)=O)C(C)(C)SSC1(C)C
Q: For B2, which IC50 (IL23R_huFC [4]) is on record?
A: 1000 to 10000 nM

B3: pyroglutamic acid-[Pen]-QTWQ[Pen]-[Phe(4-OMe)]-[2-Nal]-[α-MeLys]-[Lys(Ac)]-NG-NH2 (peptide)
peptide: EXQTWQXFXKKNG
modifications: N-terminal pyroglutamic acid; Pen-Pen disulfide; Phe(4-OMe); 2-Nal; α-MeLys; Lys(Ac); NH2
Q: B3 was tested. Which “pStat3 HTRF IC50” value (IL-23R on DB cells) did it give?
A: < 10 nM

Q: What about the IC50 (IL23R_huFC [4]) of the same binder?
A: 25 to 100 nM

Q: What about the IC50 (Rat IL-23R_huFC [5]) of the same binder?
A: 25 to 100 nM

Q: What does the source list for XQTWQCFXXKNG (as bracketed in name; thioether cyclo) [Ac-Cyclo-[[Abu]-QTWQC]-[Phe(4-OMe)]-[2-Nal]-[α-MeOrn]-[Lys(Ac)]-NG-NH2]?
A: IC50 (Rat IL-23R_huFC [1]): 10 to 25 nM; IC50 (IL23R_huFC [6]): 10 to 25 nM; pStat3 HTRF IC50 [2]: < 10 nM

Q: Which IC50 (Rat IL-23R_huFC [7]) does the source give for CQTWQCYWXENG (Ac; 3-Pal; NH2) [Ac-CQTWQCYW-[3-Pal]-ENG-NH2] here?
A: 20 nM

Q: Which IC50 (Rat IL-23R_huFC [7]) does the source give for Ac-CQTWQCYW[hLeu]ENE-NH2 (disulfide 1-6 (inferred)) [Ac-CQTWQCYW-[hLeu]-ENE-NH2] here?
A: 1000 nM
